T1: human ceruloplasmin (human, UniProt P00450 20-1065)
T1 construct: also called CP; purified CP
T1 sequence: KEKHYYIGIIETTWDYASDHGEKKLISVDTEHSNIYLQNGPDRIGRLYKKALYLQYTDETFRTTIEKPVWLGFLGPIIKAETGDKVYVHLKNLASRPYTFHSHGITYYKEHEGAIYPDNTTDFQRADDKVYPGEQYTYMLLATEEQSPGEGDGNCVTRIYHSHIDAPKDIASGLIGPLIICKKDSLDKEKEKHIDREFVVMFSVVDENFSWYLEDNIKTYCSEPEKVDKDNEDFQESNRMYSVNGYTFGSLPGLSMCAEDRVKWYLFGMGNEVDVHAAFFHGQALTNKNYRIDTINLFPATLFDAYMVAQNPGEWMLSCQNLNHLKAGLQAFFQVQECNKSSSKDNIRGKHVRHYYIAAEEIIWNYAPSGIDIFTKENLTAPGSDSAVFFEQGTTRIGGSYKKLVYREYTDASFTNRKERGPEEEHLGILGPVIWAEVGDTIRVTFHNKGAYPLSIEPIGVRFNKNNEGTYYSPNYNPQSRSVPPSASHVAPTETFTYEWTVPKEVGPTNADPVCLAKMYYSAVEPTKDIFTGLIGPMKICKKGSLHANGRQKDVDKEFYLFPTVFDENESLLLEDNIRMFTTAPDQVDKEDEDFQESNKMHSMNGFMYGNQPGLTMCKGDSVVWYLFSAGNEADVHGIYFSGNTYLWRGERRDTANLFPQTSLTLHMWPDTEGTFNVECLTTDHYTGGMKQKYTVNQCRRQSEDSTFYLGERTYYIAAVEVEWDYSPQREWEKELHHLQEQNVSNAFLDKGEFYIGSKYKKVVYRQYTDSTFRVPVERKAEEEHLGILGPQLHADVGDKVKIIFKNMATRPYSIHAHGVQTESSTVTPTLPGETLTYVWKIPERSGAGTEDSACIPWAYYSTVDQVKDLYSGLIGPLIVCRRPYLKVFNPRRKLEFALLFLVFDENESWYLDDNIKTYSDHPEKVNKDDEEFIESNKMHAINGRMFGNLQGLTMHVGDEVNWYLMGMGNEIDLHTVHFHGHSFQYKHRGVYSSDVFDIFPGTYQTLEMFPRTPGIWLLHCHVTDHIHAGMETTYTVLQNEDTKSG

B1: anti-CP mAb A (antibody, V domains shown)
VH: QSLEESGGDLVKPGASLTLTCKASGFDLSRFYYMCWVRQAPGKGLEWIACIYAGRTGNTYYASWAKGRFTISKTSSTTVTLQMTSLTAADTATYFCARASGDFLAYTYAMDLWGPGTLVTVSS
VL: AAVLTQTPASVSAAVGGTVTISCQASQSVDNNNYLAWYQQKPGQPPKLLIYEASKLASGVPSRFSGSGSGTQFTLTISDVQCDDATTYYCAGGYSSSADANAFGGGTEVVVKG
notes: Recombinant full-length rabbit IgG from HEK-293; tested as conditioned medium, Protein A-purified and biotinylated
B2: anti-CP mAb B (antibody, V domains shown)
VH: QQQLEESGGGLVKPGGTLTLTCKASGIDFSSYYYMCWVRQAPGKGLEWIACIYVIDDTIYCANWAKGRFTISKTSSTTVTLQMTSLTAADTATYFCARDGSSGIRDYFDLWGPGTLVTVSS
VL: AYDMTQTPASVEVAVGGTVTIKCQASESVSTWLAWYQQKPGQPPKLLIYKASDLASGVPSRFKGSGSGTEFTLTISGVECADAATYYCQQGYTYNNVENVFGGGTEVVVKG
notes: as for B1
B3: anti-CP mAb C (antibody, V domains shown)
VH: QSVEESGGRLVTPGTPLTLTCTASGFSLSRYYMSWVRQAPGKGLEWIGMIYPSSGSTWYASWVKGRFTISATATSVDLKITSPTTEDTATYFCVRDRYPGYNGDSFNLWGQGTLVTVSS
VL: AQVLTQTASPVSAAVGSTVTINCQASQSVYNNNYLAWFQQKPGQPPKRLIYQASKLAIGVPSRFSGSGSGTQFTLTISDVQCDDAATYYCLGSYGCNSVDCNVFGGGTEVVVKG
notes: Recombinant full-length rabbit IgG from HEK-293; also called mAb2
B4: anti-CP mAb H (antibody, V domains shown)
VH: QSVEESGGRLVTPGTPLTLTCTVSGFSLSTYAMGWVRQAPGKGLEYIGIIYGGSGTFYASWAKGRFTISKTSTTVDLKITSPTTEDTATYFCARDGDDSYFDYFNLWGQGTLVTVSS
VL: AAVLTQTPASVSAAVGGTVSISCQSNENIGSNLAWYQQKPGQPPKLLIYGASTLTSGVPSRFKGSGSGTAFTLTISGVQCDDAATYYCLGGYLSTSDTTFGGGTAVVVKG
notes: as for B1
B5: anti-CP mAb D (antibody, V domains shown)
VH: QEQLVESGGGLVQPEGSLTLTCKASGFDFSSYWMCWVRQAPGKRPEWIACIYGGDGTSYFAGWAKGRFTISKTSSTTVTLQMTSLTAADTATYFCARADYYVYVDGGYGHAYDLWGPGTLVTVSS
VL: DIVMTQTPASVEAAVGGSVTIKCQASDDIYSYLAWYQQKPGQPPKLLIFDASSLPSGVPSRFKGSGSGTQFTLTISGVQCADAATYYCQNYYGSSSSVHAFGGGTEVVVKG
notes: as for B1
B6: anti-CP mAb G (antibody, V domains shown)
VH: QSLEESGGRLVTPGTLLTLTCTVSGFSLSSNAMSWVRQAPGEGLEWIGTISSRGSTYYANWAKGRFTISKTSTTVDLKITSPTTEDTATYFCARSSLAGYEPYYFKLWGQGTLVTVSS
VL: DVVMTQTASPVSAAVGGTVTIKCQASESISSYLAWYQQKPGQPPKLLIYGASDLASGVPSRFKGSGSGTEFTLTISDLECADAATYYCQSYYGLSRNGYGNVFGGGTEVVVKG
notes: Recombinant full-length rabbit IgG from HEK-293; also called mAb3

The target in the first assay is T1, human ceruloplasmin. As to the kind of experiment: competition ELISA on coated CP, biotinylated probe; competitor: mAb F. The procedure: (§1) To assess whether any of the 8 anti-CP antibodies competed with each other for binding to CP, the following ELISA study was performed.
(§2) Briefly, CP was coated onto plates at 0.4 ug/mL overnight. Plates were then blocked with 1% BSA for 4 hours, incubated with 10 ug/mL unlabeled blocking antibody for 1 hour, and then, without washing, 50 ng/mL of biotinylated probe antibody for 1 hour. Plates were washed and subsequently incubated with SA-HRP for 30 minutes, followed by another wash. Plates were then incubated with TMB substrate for either 30 minutes or 15 minutes, as noted below, and the reaction was stopped by adding 0.18 M sulfuric acid and read at A450. The experiment was performed on two plates with plate 1 having a TMB incubation time of 30 minutes and plate 2 having a TMB incubation time of 15 minutes. Weaker binders to coated CP were tested on plate 1 and stronger binders on plate 2, with some duplication across plates. Probe Ab/blocking Ab interactions are shown in Table 3, and a summary of the binning results for all 8 anti-CP mAbs and for the 5 mAbs showing the most robust signal on coated CP (as shown in FIG. 6) is provided in Tables 4 and 5.
B1: the “probe binding, % of diluent control” value was -2%.
Consider B2, for which the “probe binding, % of diluent control” value worked out at 95%.
Regarding B3, the “probe binding, % of diluent control” value was 97%.
The same measure, in the same setting: then B4, with 94%; and B5, with 100%.
Take B6: the “probe binding, % of diluent control” value was 84%.

A further assay deals with T1, human ceruloplasmin. In words: competition ELISA on coated CP, biotinylated probe; competitor: mAb A. The procedure: as §1, §2
Consider B2, for which the “probe binding, % of diluent control” value came to 94%.
Take B3: the “probe binding, % of diluent control” value was found to be 100%.
On to B4, for which the “probe binding, % of diluent control” value was 93%.
Take B5: the “probe binding, % of diluent control” value was determined as 107%.
Take B6: the “probe binding, % of diluent control” value was 91%.

The target of the next assay is T1, human ceruloplasmin. In words: competition ELISA on coated CP, biotinylated probe; competitor: mAb D. The procedure:
as §1, §2
Regarding B1, the “probe binding, % of diluent control” value worked out at 113%.
Same read-out and setting: then B2, with 34%; and B3, with 93%.
Still for that read-out and setting: then B4, with 33%.
On the same count and under the same terms, then B6, with 103%.

The next assay has as its target T1, human ceruloplasmin. As to the kind of experiment: competition ELISA on coated CP, biotinylated probe; competitor: mAb H. The procedure:
as §1, §2
Regarding B1, the “probe binding, % of diluent control” value worked out at 115%.
As for B2, the “probe binding, % of diluent control” value was 204%.
On to B3, for which the “probe binding, % of diluent control” value came to 85%.
In the case of B5, the “probe binding, % of diluent control” value was 9%.
In the case of B6, the “probe binding, % of diluent control” value came to 106%.

The next assay deals with T1, human ceruloplasmin. In words: competition ELISA on coated CP, biotinylated probe; competitor: CP-pAb. The procedure:
as §1, §2
Take B1: the “probe binding, % of diluent control” value was determined as 17%.
As to B2, the “probe binding, % of diluent control” value worked out at 2%.
On to B3, for which the “probe binding, % of diluent control” value turned out to be 3%.
For the molecule B4, the “probe binding, % of diluent control” value amounted to 2%.
Same read-out and setting: then B5, with 10%; and B6, with 6%.

For the next assay, the target named is T1, human ceruloplasmin. In words: capture ELISA: mAb (CM, 50 ng/mL) on anti-rabbit IgG-Fc; 20 ng/mL purified human CP. The method, then: (§3) Ceruloplasmin binding by the 28 recombinant anti-CP mAbs was tested as follows. Clear 96-well plates (Nunc, Maxisorp) were coated and incubated overnight at 4 degrees with 10 ug/mL goat anti-rabbit IgG-Fc (Bethyl Laboratories) in BupH carbonate-bicarbonate buffer (ThermoFisher). The coating solution was discarded, and the plates were blocked with 1% BSA in PBS at room temperature for 2 hours and then the blocking solution was discarded. The 28 anti-CP mAb transient conditioned media were diluted to 50 ng/mL in PBS-T containing 1% BSA and incubated on the blocked plates for 1 hour at room temperature. Negative control wells were incubated with PBS-T containing 1% BSA alone or with transient conditioned medium containing non-CP-specific rabbit mAb at 50 ng/mL.
B1 gave an A450 of 1.09 A450.
In the case of B2, the A450 amounted to 1.02 A450.
B3 came in with an A450 of 1.09 A450.
B4: the A450 is 0.924 A450.
B5: the A450 was determined as 1.03 A450.
B6 yielded an A450 of 0.987 A450.

The next assay deals with T1, human ceruloplasmin. In words: competition ELISA on coated CP, biotinylated probe; competitor: mAb E. The procedure: as §1, §2
As for B1, the “probe binding, % of diluent control” value was 127%.
Take B2: the “probe binding, % of diluent control” value was 87%.
Consider B3, for which the “probe binding, % of diluent control” value turned out to be 99%.
Turning to B4, the “probe binding, % of diluent control” value worked out at 79%.
For B5, the “probe binding, % of diluent control” value was 98%.
Take B6: the “probe binding, % of diluent control” value turned out to be 102%.

The target of another assay is T1, human ceruloplasmin. In words: competition ELISA on coated CP, biotinylated probe; competitor: mAb C. The method, then:
as §1, §2
Regarding B1, the “probe binding, % of diluent control” value was determined as 138%.
Take B2: the “probe binding, % of diluent control” value was determined as 78%.
For B4, the “probe binding, % of diluent control” value was determined as 67%.
Consider B5, for which the “probe binding, % of diluent control” value was 72%.
Take B6: the “probe binding, % of diluent control” value came to 108%.

For the next assay, the target named is T1, human ceruloplasmin. In words: competition ELISA on coated CP, biotinylated probe; competitor: mAb G. The method, then:
as §1, §2
Regarding B1, the “probe binding, % of diluent control” value came out at 35%.
On to B2, for which the “probe binding, % of diluent control” value is 98%.
On to B3, for which the “probe binding, % of diluent control” value is 97%.
On the same count and under the same terms, then B4, with 95%; and B5, with 100%.

The target of a further assay is T1, human ceruloplasmin. As to the kind of experiment: competition ELISA on coated CP, biotinylated probe; competitor: mAb B. The procedure: as §1, §2
For B1, the “probe binding, % of diluent control” value was determined as 183%.
The same measure, in the same setting: then B3, with 95%; and B4, with 110%.
B5: the “probe binding, % of diluent control” value stood at 98%.
As for B6, the “probe binding, % of diluent control” value came to 93%.

In another assay the target is T1, human ceruloplasmin. In words: capture ELISA: mAb (CM, 50 ng/mL) on anti-rabbit IgG-Fc; endogenous CP in Li-heparin human plasma 1:10,000. The method, then: as §3
Turning to B1, the A450 came to 1.4 A450.
On the same count and under the same terms, then B2, with 1.32 A450.
B3 yielded an A450 of 1.27 A450.
Turning to B4, the A450 is 1.03 A450.
In turn, B5 came in with an A450 of 1.25 A450.
In turn, B6 had an A450 of 1.18 A450.

Source of the values: patent US20240044920A1 (Alexion, published 2024).
